Target: A beta oligomer (synthetic A beta1-40, HCl form, 0.1 mg/ml in PBS, incubated at 37 degrees C for one hour) (UniProt P05067)
Assay: SPR (Biacore 3000)

Kd: 2.91 nM
koff: 0.000168 s⁻¹
kon: 57800 M⁻¹ s⁻¹
Substance: Anti-A beta antibody 6E10
